Where two headings read alike, the source gives them in different places.
Tests used:
[1] = target: T1, Full length human PD1 (huPD1) on cells (human, UniProt Q15116 25-288); experiment: cell-based or functional assay
[2] = target: T2, Extracellular domain of human PD1 (huPD1-ECD) (human, UniProt Q15116 25-169, biotinylated in the ligand inhibition assay (sites not given)); experiment: MSD ligand inhibition, competitor coated cynoPDL1-ECD
T2 construct: Expressed with a hexahistidine tag or as Fc fusion; also called biotinylated PD-1
T2 sequence (Q15116 25-169 limits assumed): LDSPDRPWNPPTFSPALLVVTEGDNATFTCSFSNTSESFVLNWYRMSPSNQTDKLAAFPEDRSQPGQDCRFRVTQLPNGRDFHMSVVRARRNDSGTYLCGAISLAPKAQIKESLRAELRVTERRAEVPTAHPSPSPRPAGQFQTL

[3] = target: T3, Extracellular domain of cyno PD1 (cPD1-ECD) (Macaca fascicularis (cynomolgus)); experiment: SPR ProteOn, cynoPD1-ECD; RANGE high replicate; RANGE high replicate
T3 construct: Expressed with a hexahistidine tag or as Fc fusion; also called cynoPD1-ECD; cynoPD-1-ECD
T3 chain: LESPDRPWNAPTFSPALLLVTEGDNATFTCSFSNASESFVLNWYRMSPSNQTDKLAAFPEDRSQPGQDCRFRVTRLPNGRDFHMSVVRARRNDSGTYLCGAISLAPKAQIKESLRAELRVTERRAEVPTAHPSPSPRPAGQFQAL
Protocol: (§1) Affinity measurements using Surface Plasmon Resonance (SPR) were performed using a ProteOn XPR36 system. A biosensor surface was prepared by coupling a mixture of anti-IgG Fc modified alginate polymer layer surface of a GLC chip using the manufacturer instructions for amine-coupling chemistry. […] The collected data were processed and fitted to a Langmuir 1:1 binding model. The result for each mAb was reported in the format of kₒₙ (On-rate), koff (Off-rate) and KD (equilibrium dissociation constant).
(§2) STDEV were calculated for 3 or more replicates generated for human and cyno proteins. If less than 3 replicates were calculated, RANGE was indicated. RANGE is defined as the low and high values for the replicates tested. For samples in the Table 10 or Table 11 without value indicated in RANGE or STDEV, only one experiment was performed.

[4] = target: T2, Extracellular domain of human PD1 …; experiment: SPR ProteOn, captured mAb, huPD1-ECD analyte
Protocol: as §1, §2

[5] = target: T3, Extracellular domain of cyno PD1 …; experiment: SPR ProteOn, captured mAb, cynoPD1-ECD analyte
Protocol: as §1, §2

[6] = target: T3, Extracellular domain of cyno PD1 …; experiment: SPR ProteOn, cynoPD1-ECD; RANGE low replicate
[7] = target: T1, Full length human PD1 (huPD1) on cells; experiment: flow cytometry, PHA-stimulated Jurkat cells
[8] = target: T3, Extracellular domain of cyno PD1 …; experiment: SPR ProteOn, cynoPD1-ECD; RANGE low replicate; RANGE low replicate
Protocol: as §1
STDEV were calculated for 3 or more replicates generated for human and cyno proteins. If less than 3 replicates were calculated, RANGE was indicated. RANGE is defined as the low and high values for the replicates tested.

[9] = target: T3, Extracellular domain of cyno PD1 …; experiment: SPR ProteOn, cynoPD1-ECD; RANGE high replicate
Protocol: as §1, §2

[10] = target: T2, Extracellular domain of human PD1 …; experiment: SPR ProteOn, captured mAb, huPD1-ECD analyte; remark: listed apart in the source
Protocol: as §1
STDEV were calculated for 3 or more replicates generated for human and cyno proteins. If less than 3 replicates were calculated, RANGE is indicated. RANGE is defined as the low and high values for the replicates tested. For samples without RANGE or STDEV, only one experiment was performed

[11] = target: T3, Extracellular domain of cyno PD1 …; experiment: SPR ProteOn, captured mAb, cynoPD1-ECD analyte
[12] = target: T4, recombinant human TIM-3-Fc fusion protein (huTIM-3-Fc) (human, UniProt Q8TDQ0 22-200); experiment: competition ELISA on coated Fc-TIM-3, competitor galectin-9
T4 construct: range 22-200; Bought from R&D Systems (NS0-derived); Deglycosylated for HDX-MS; also called recombinant human Fc-TIM-3 chimera; TIM-3 IgG1 Fc Chimera; not shown: IgG1 Fc of the bought chimera

T1 sequence (Q15116 25-288 limits assumed): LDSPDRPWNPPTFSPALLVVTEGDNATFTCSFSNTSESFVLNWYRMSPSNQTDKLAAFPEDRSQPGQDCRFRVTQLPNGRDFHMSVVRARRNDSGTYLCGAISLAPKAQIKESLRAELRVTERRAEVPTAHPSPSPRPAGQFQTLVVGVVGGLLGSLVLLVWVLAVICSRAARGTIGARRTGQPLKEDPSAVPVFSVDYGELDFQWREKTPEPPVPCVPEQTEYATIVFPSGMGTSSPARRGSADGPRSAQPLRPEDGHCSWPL

B1: PD1B243 (antibody, human IgG4 S228P, kappa, V domains shown)
VH: EVQLVESGGGLVQPGGSLRLSCAASGFAFSRYDMSWVRQAPGKGLESVAYISGGGANTYYLDNVKGRFTISRDNAKNSLYLQMNSLRAEDTAVYYCASPYLSYFDVWGQGTLVTVSS
VL: EIVMTQSPATLSVSPGERATLSCRASQSLSDYLHWYQQKPGQAPRLLIKSASQSISGIPARFSGSGSGTEFTLTISSLQSEDFAVYYCQNGHSFPYTFGQGTKLEIKR
[1]
  CMV EC50, nM (IFN-γ induction): 0.02 nM
  MLR EC50, nM (IFN-γ induction): 0.07 nM

B2: PD1B175 (antibody, V domains shown)
VH: QVQLVQSGAEVKKPGSSVKVSCKASGGTFKSYVIHWVRQAPGQGLEWMGGIIPIFGTANYAQKFQGRVTITADESTSTAYMELSSLRSEDTAVYYCARGYVRATGMLDYWGQGTLVTVSS
VL: EIVLTQSPATLSLSPGERATLSCRASQSVSSYLAWYQQKPGQAPRLLIYDASNRATGIPARFSGSGSGTDFTLTISSLEPEDFAVYYCQQRSNWPLTFGQGTKVEIK
notes: Tested as IgG2sigma; also called PD1H163/PH9L3
[2]
  percentage ligand not blocked at 1 µg/ml: 6%
  percentage ligand not blocked at 10 µg/ml: 5%
[3]
  koff: 0.00673 s⁻¹
  kon: 230000 M⁻¹ s⁻¹
[4]
  Kd: 23 nM
  koff: 0.00972 s⁻¹
  kon: 422000 M⁻¹ s⁻¹
[5]
  Kd: 30 nM
  koff: 0.0064 s⁻¹
  kon: 214000 M⁻¹ s⁻¹
[6]
  Kd: 26 nM
  kon: 198000 M⁻¹ s⁻¹
[7]
  EC50: 0.09 µg/mL
[8]
  koff: 0.00606 s⁻¹
[9]
  Kd: 34 nM

B3: PD1B196 (antibody, V domains shown)
VH: QVQLVQSGAEVKKPGSSVKVSCKASGGTFSSYAISWVRQAPGQGLEWMGGIIPIFDTANYAQKFQGRVTITADESTSTAYMELSSLRSEDTAVYYCARPGLAAAYDTGSLDYWGQGTLVTVSS
VL: EIVLTQSPATLSLSPGERATLSCRASQSVRSYLAWYQQKPGQAPRLLIYDASNRATGIPARFSGSGSGTDFTLTISSLEPEDFAVYYCQQRNYWPLTFGQGTKVEIK
notes: also called PD1H170/PD1L148
[10]
  Kd: 0.41 nM
  koff: 0.000366 s⁻¹
  kon: 883000 M⁻¹ s⁻¹
[11]
  Kd: 0.58 nM
  koff: 0.000176 s⁻¹
  kon: 303000 M⁻¹ s⁻¹
[1]
  CMV EC50, nM (IFN-γ induction): 0.31 nM
  MLR EC50, nM (IFN-γ induction): 0.14 nM

B4: PD1B199 (antibody, V domains shown)
VH: QVQLVQSGAEVKKPGSSVKVSCKASGGTFSDYVISWVRQAPGQGLEWMGGIIPIYGTANYAQKFQGRVTITADESTSTAYMELSSLRSEDTAVYYCARGTLDRTGHLDYWGQGTLVTVSS
VL: EIVLTQSPATLSLSPGERATLSCRASQSVSSYLAWYQQKPGQAPRLLIHDASTRATGIPARFSGSGSGTDFTLTISSLEPEDFAVYYCQQRNYWPLTFGQGTKVEIK
notes: also called PD1H164/PD1L86
[10]
  Kd: 0.6 nM
  koff: 0.000564 s⁻¹
  kon: 933000 M⁻¹ s⁻¹
[11]
  Kd: 0.52 nM
  koff: 0.000177 s⁻¹
  kon: 340000 M⁻¹ s⁻¹
[1]
  MLR EC50, nM (IFN-γ induction): 0.63 nM

B5: PD1B200 (antibody, V domains shown)
VH: QVQLVQSGAEVKKPGSSVKVSCKASGGTFSDYVISWVRQAPGQGLEWMGGIIPIYGTANYAQKFQGRVTITADESTSTAYMELSSLRSEDTAVYYCARGTLDRTGHLDYWGQGTLVTVSS
VL: EIVLTQSPATLSLSPGERATLSCRASQSVDNYLAWYQQKPGQAPRLLIHDASNRATGIPARFSGSGSGTDFTLTISSLEPEDFAVYYCQQRSAWPLTFGQGTKVEIK
notes: also called PD1H164/PD1L168
[10]
  Kd: 1.17 nM
  koff: 0.00122 s⁻¹
  kon: 1.05e+06 M⁻¹ s⁻¹
[11]
  Kd: 1.11 nM
  koff: 0.000422 s⁻¹
  kon: 380000 M⁻¹ s⁻¹
[1]
  CMV EC50, nM (IFN-γ induction): 3.81 nM

B6: PD1B201 (antibody, V domains shown)
VH: QVQLVQSGAEVKKPGSSVKVSCKASGGTFSDYVISWVRQAPGQGLEWMGGIIPIYGTANYAQKFQGRVTITADESTSTAYMELSSLRSEDTAVYYCARGTLDRTGHLDYWGQGTLVTVSS
VL: EIVLTQSPATLSLSPGERATLSCRASQSVSNYLAWYQQKPGQAPRLLIYDASNRATGIPARFSGSGSGTDFTLTISSLEPEDFAVYYCQQRNYWPLTFGQGTKVEIK
notes: also called PD1H164/PD1L190
[10]
  Kd: 1.12 nM
  koff: 0.000957 s⁻¹
  kon: 858000 M⁻¹ s⁻¹
[11]
  Kd: 0.96 nM
  koff: 0.000293 s⁻¹
  kon: 305000 M⁻¹ s⁻¹
[1]
  CMV EC50, nM (IFN-γ induction): 2.6 nM

B7: PD1B244 (antibody, human IgG4 S228P, kappa, V domains shown)
VH: QVQLVQSGAEVKKPGSSVKVSCKASGGTFSSYAISWVRQAPGQGLEWMGGIIPIFDTANYAQKFQGRVTITADESTSTAYMELSSLRSEDTAVYYCARPGLAAAYDTGSLDYWGQGTLVTVSS
VL: EIVLTQSPATLSLSPGERATLSCRASQSVRSYLAWYQQKPGQAPRLLIYDASNRATGIPARFSGSGSGTDFTLTISSLEPEDFAVYYCQQRNYWPLTFGQGTKVEIKR
[1]
  CMV EC50, nM (IFN-γ induction): 0.03 nM
  MLR EC50, nM (IFN-γ induction): 0.08 nM

B8: PD1B162 (antibody, human IgG2, kappa, V domains shown)
VH: QVQLVQSGAEVKKPGSSVKVSCKASGGTFSSYAISWVRQAPGQGLEWMGGIIPIFDTANYAQKFQGRVTITADESTSTAYMELSSLRSEDTAVYYCARPGLAAAYDTGNLDYWGQGTLVTVSS
VL: EIVLTQSPATLSLSPGERATLSCRASQSVDSYLAWYQQKPGQAPRLLIYDASNRATGIPARFSGSGSGTDFTLTISSLEPEDFAVYYCQQREYWPLTFGQGTKVEIKR
notes: IgG2sigma/kappa; VH 42, VL 52; also called PD1H131/PD1L67
[2]
  percentage ligand not blocked at 1 µg/ml: 7%
  percentage ligand not blocked at 10 µg/ml: 6%
[3]
  koff: 0.000998 s⁻¹
[4]
  Kd: 5.95 nM
  koff: 0.00386 s⁻¹
  kon: 649000 M⁻¹ s⁻¹
[5]
  Kd: 2.53 nM
  koff: 0.000979 s⁻¹
  kon: 387000 M⁻¹ s⁻¹
[6]
  Kd: 2.5 nM
  kon: 384000 M⁻¹ s⁻¹
[7]
  EC50: 0.05 µg/mL
[8]
  koff: 0.000959 s⁻¹
[9]
  Kd: 2.6 nM
  kon: 389000 M⁻¹ s⁻¹

B9: PD1B164 (antibody, human IgG2, kappa, V domains shown)
VH: QVQLVQSGAEVKKPGSSVKVSCKASGGTFSSYAISWVRQAPGQGLEWMGGIIPIFDTANYAQKFQGRVTITADESTSTAYMELSSLRSEDTAVYYCARPGLAAAYDTGNLDYWGQGTLVTVSS
VL: EIVLTQSPATLSLSPGERATLSCRASQSVRSYLAWYQQKPGQAPRLLIYDASYRATGIPARFSGSGSGTDFTLTISSLEPEDFAVYYCQQRDYWPLTFGQGTKVEIKR
notes: IgG2sigma/kappa; VH 42, VL 53; also called PD1H131/PD1L71
[2]
  percentage ligand not blocked at 1 µg/ml: 6%
  percentage ligand not blocked at 10 µg/ml: 3%
[3]
  koff: 0.000291 s⁻¹
[4]
  Kd: 2.92 nM
  koff: 0.00131 s⁻¹
  kon: 448000 M⁻¹ s⁻¹
[5]
  Kd: 1.07 nM
  koff: 0.000287 s⁻¹
  kon: 267000 M⁻¹ s⁻¹
[6]
  Kd: 1.06 nM
  kon: 267000 M⁻¹ s⁻¹
[7]
  EC50: 0.06 µg/mL
[8]
  koff: 0.000282 s⁻¹
[9]
  Kd: 1.09 nM
  kon: 267000 M⁻¹ s⁻¹

B10: TM3B196 (antibody, V domains shown)
VH: QVQLKESGPGLVAPSQSLSITCTISGFSLTSYGVHWVRQPPGKGLEWLVVIWSDGSTTYNSALKSRLSISKDNSKSQVFLKMNSLQTDDTAMYYCARQANYRYDSAMDYWGQGTSVTVSS
VL: DIQMTQSPASLAVSLGQRATISCKASQSVDYDGDSYMNWYQQKPGQPPKLLIYTAANLQSGIPARFSGSGSGTDFTLNIHPVEEEDAATYYCQQSNEDPFTFGSGTKLEIK
notes: Mouse-derived variable domains; also called TM3H102/TM3L64
[12]
  Galectin 9 Inhibition, % inhibition (maximal): 57%

B11: TM3B193 (antibody, V domains shown)
VH: EVQLQQSGAELVKPGASVKLSCTASGFHIKDTYLHWVKQRPEQGLEWIGRIDPTNGNIKYDPKFQGKATITSDTSSNTAYLQLSSLTSEDTAVYYCARPYYGFFDYWGQGTTLTVSS
VL: DIVMTQSHKFMSTSVGDRVSITCKASQDVNTAVAWYQQKPGQSPKLLIYSATYRYTGVPDRFTGSGSGTDFTFTISSVQAEDLAVYYCQQHYSTPYTFGSGTKLEIK
notes: Mouse-derived variable domains; also called TM3H99/TM3L52
[12]
  Galectin 9 Inhibition, % inhibition (maximal): 47.4%

B12: TM3B113 (antibody, V domains shown)
VH: EVQLLESGGGLVQPGGSLRLSCAASGFTFSDYWMSWVRQAPGKGLEWVSVIKYSGGSKYYADSVKGRFTISRDNSKNTLYLQMNSLRAEDTAVYYCAKELEGVFDYWGQGTLVTVSS
VL: EIVLTQSPGTLSLSPGERATLSCRASQSVSNSTLAWYQQKPGQAPRLLIYTASSRATGIPDRFSGSGSGTDFTLTISRLEPEDFAVYYCQQSYTSPWTFGQGTKVEIK
notes: also called TM3H65/TM3L12
[12]
  Galectin 9 Inhibition, % inhibition (maximal): 75.6%

Source: patent US20210277110A1 (Janssen / Centocor, published 2021)
